# Assay results reported in patent US20210032330A1.
# Substitutions are numbered along the chain they refer to.
# B1: anti-TIM-3 monoclonal antibody 5-K4-A (antibody, V domains shown)
# VH: EVQLQQSGPELVKTGASVKISCKASGYSFTAYYIHWVKQSHGKSLEWIGHISCFNGATSYNQKFKGKATFTVDTSSSTAYMQFNSLTSEDSAVYYCARRGDFDRPEFAYWGQGTLVTVSA
# VL: DIVLTQSPASLAVSLGQRATISCRASESVEYYGTSLMQWYQQKPGQPPKLLIYAASNVESGVPARFSGSGSGTDFSLNIHPVEEDDIAMYFCQQSRKVPWTFGGGTKLEIK
# B2: anti-TIM-3 monoclonal antibody 6-I13-A (antibody, V domains shown)
# VH: EVQLQQSGPELEKPGASVKISCKASGYSFTGYNMNWVKQSNGKSLEWIGNIDPYYGVTSYNQKFKGKATLTVDKSSSTAYMQLKSLTSEDSAVYYCASYSLTYDGYYPFAYWGQGTLVTVSA
# VL: DIVLTQSPASLAVSLGQRATISCRASKSVSTSGYSYMHWYQQKPGQPPKLLIYLASNLESGVPARFSGSGSGTDFTLNIHPVEEEDAATYYCQHSRELPYTFGGGTKLEIK
# B3: anti-TIM-3 monoclonal antibody 10-O15-A (antibody, V domains shown)
# VH: QVQLQQSGADLVRPGASVKLSCKALGYTFTDYEMHWVKQTPVHGLEWIGAIHPGSGGTAYNQKFKGKATLTADKSSSTAYMELSSLTSEDSAVYFCSRSYYRYTGYFDVWGAGTTVTVSS
# VL: B2 VL with T31A, I79V, Y100F, G104S
# B4: anti-TIM-3 monoclonal antibody 10-M21-A (antibody, V domains shown)
# VH: DVQLQESGPTLVKPSQTLSLTCSVTGDSITSGYWNWIRKFPGNKLEYMGYISYSGSTYYNPSLKSRISIIRDTSKNQYYLQLNSVTTEDTATYYCVSGNHFDYWGQGTTLTVSS
# VL: DIQMTQSPSSLSASLGGKVTITCKASQDINRYIAWYQHKPGKGPRLLIHYTSTLQPGIPSRFSGSGSGRDYSFSISNLEPEDIATYYCLQYDNLLFTFGSGTKLEIK
# B5: anti-TIM-3 monoclonal antibody 16-K5-A (antibody, V domains shown)
# VH: QVQLQQSGAELVKPGASVKLSCKASGYTFTSSDINWVRQRPEQGLEWIGWIFPGDGSTKYNEKFKGKATLTTDKSSSTAYMQLSRLTSEDSAVYFCARGLDYWGQGTTLTVSS
# VL: DIKMTQSPSSMYASLGERVTITCKASQDINSYLGWFQQKPGKSPKTLIYRADRLVDGVPSRFSGSGSGQDYSLTISSLEYEDMGIYYCLQYDEFPLTFGAGTKLELK
# B6: anti-TIM-3 monoclonal antibody 18-N1-A (antibody, V domains shown)
# VH: QVQLQQPGAELVRPGVSVKLSCKASGYTFTSYWMHWIKQRPEQGLERIGEINPSNGGTNYNEKFKNKATLTVDKSSSTAYMQLSSLTSEDSAVYYCARSYYTYDAIDYWGQGTSVTVSS
# VL: DIVMSQSPSSLAVSAGEKVTMSCKSSQSLLNSRTRKNYLAWYQQKPGQSPKLLIYWASTRESGVPDRFTGSGSGTDFTLTISSVQAEDLAVYYCKQSYNLYTFGGGTKLEIK
# B7: anti-TIM-3 monoclonal antibody 16-L3-A (antibody, V domains shown)
# VH: QVQLQQSGPELVKPGASVKMSCKASGYTFTSYYIHWVKQRPGQGLEWIGWIYPGDGSTKYNEKFKGKTTLTADKSSSTAYMLLSSLTSEDSAIYFCATDRYDVAYWGQGTLVTVSA
# VL: EIVLTQSPALMAASPGEKVTITCSVSSSISSSNLHWYQQKSETSPKPWIYGTSNLASGVPVRFSGSGSGTSYSLTISSMEAEDAATYYCQQWSSYPLTFGAGTKLELK
# Molecular target: cynomolgus TIM-3 (cynomolgus)
# Experiment: BLI (OCTET Red96), mAb on anti-mouse Fc biosensor, antigen in solution, 1:1 model
row,Kd,Binder
1,6.7 nM,B1
2,5.2 nM,B2
3,2.9 nM,B3
4,7.5 nM,B4
5,6.4 nM,B5
6,14 nM,B6
7,6.5 nM,B7
